These results are taken from patent US20240052038A1.

The target of test [1] is mouse PD-L1 on CD3+ T lymphocytes (mouse) (UniProt Q9EP73). Put plainly: receptor occupancy on blood CD3+ T cells by flow cytometry, mice dosed with 1.5 mg/mouse, day 10. For orientation: Flow cytometry measures light scatter and fluorescence of single cells or particles in a stream.
Test [2] has the same target. Briefly: receptor occupancy on blood CD3+ T cells by flow cytometry, correlated with serum antibody concentration after a single injection in mice.
The target of test [3] is Fc-γ receptors expressed on the immune cells. Put plainly: cell-based or functional assay.
Test [4] has the same target. Put plainly: cell-based or functional assay. The source holds these as a separate data set.

Read-outs that look alike come from different tables or passages of the source.

mouse PD-L1 on CD3+ T lymphocytes (mouse), sequence (Q9EP73 19-290): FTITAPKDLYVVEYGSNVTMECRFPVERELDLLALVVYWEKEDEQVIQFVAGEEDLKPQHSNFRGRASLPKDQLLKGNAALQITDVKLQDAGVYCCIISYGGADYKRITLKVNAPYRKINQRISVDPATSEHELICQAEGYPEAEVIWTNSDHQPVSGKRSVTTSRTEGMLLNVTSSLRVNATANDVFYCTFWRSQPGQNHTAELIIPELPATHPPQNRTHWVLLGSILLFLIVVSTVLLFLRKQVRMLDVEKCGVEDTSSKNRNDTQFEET

The substance “rat anti-mouse PD-L1 monoclonal antibody (clone 10F.9G2, BioXCell)” displayed a receptor occupancy in test [1] greater than 60%. Besides, the serum antibody concentration above which complete target occupancy was achieved in test [2] worked out at 1 nM.

In test [3], biosimilar of atezolizumab (antibody) returned an EC50 (ADCC, CHO-K1/PD-L1 target cells, E/T 25:1; no dose response curve) of 9.5 ng/mL and a Target cell lysis (ADCC, CHO-K1/PD-L1 target cells, E/T 25:1) of 1.4%.

In test [4], Rituximab (antibody) returned an EC50 (ADCC, Raji/CD-20 target cells, E/T 25:1) of 2.1 ng/mL and a Target cell lysis (ADCC, Raji/CD-20 target cells, E/T 25:1) of 53.5%. In test [3], this substance displayed an EC50 (ADCC, Raji/CD-20 target cells, E/T 25:1) of 1.9 ng/mL; a Target cell lysis (ADCC, Raji/CD-20 target cells, E/T 25:1) of 43.6%; a Target cell lysis (ADCC, Raji/CD-20 target cells, PBMC effectors, E/T 25:1) of 48.8%.
